Data from paper PMC7142231, “α1-Microglobulin Binds Illuminated Flavins and Has a Protective Effect Against Sublethal Riboflavin-Induced Damage in Retinal Epithelial Cells” (Frontiers in Physiology, 2020).

What was measured:
[1] = target: Cleaved A1M (~22 kDa band formed with illuminated riboflavin or FAD) (human); assay: SDS-PAGE; 12% SDS-PAGE, samples reduced with 5% β-mercaptoethanol and boiled 1 min (similar results non-reducing); A1M with buffer or 40, 200, 1000 μM riboflavin or FAD, illuminated or in darkness 1 h at RT; Coomassie stain and Western blot
[2] = target: the molecule itself; assay: as above

Work on “Cleaved A1M (~22 kDa band formed with illuminated riboflavin or FAD) (domain or fragment)” yielded a stoichiometry N [1] of 2.

B1: Recombinant human α1-microglobulin (A1M) with an N-terminal His-tag (natural protein, UniProt P02760 20-203, looked up)
chain: GPVPTPPDNIQVQENFNISRIYGKWYNLAIGSTCPWLKKIMDRMTVSTLVLGEGATEAEISMTSTRWRKGVCEETSGAYEKTDTDGKFLYHKSKWNITMESYVVHTNYDEYAIFLTKKFSRHHGPTITAKLYGRAPQLRETLLQDFRVVAQGVGIPEDSIFTMADRGECVPGEQEPEPILIPRV
notes: human α1-microglobulin (A1M), the lipocalin cut from the AMBP precursor; construct as in Kwasek et al., 2007; also called recombinant A1M; not shown: His-tag, N-terminal, kept
In the case of B1, the “stoichiometry N” value [2] is reported as 2.
